Changes are numbered by the printed parent chain. Values belong to the binder of their own block, whether it stands above or below them.
Columns and labels:
[1] = target: T1, human B7RP1-Fc fusion protein (human, UniProt O75144 19-256, limits assumed); test: cell-based or functional assay
T1 sequence (looked up): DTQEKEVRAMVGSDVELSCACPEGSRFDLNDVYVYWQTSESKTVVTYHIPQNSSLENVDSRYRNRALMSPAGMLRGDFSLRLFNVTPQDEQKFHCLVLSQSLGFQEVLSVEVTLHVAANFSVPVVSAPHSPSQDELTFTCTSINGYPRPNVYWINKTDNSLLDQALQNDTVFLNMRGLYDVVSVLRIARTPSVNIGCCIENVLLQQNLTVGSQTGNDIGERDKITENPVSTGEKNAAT

[2] = target: T1, human B7RP1-Fc fusion protein; test: Biacore Fc column of Table 4 (same value as Table 3)
Description: (§1) A fixed concentration of mAb was then incubated with varying concentrations of B7RP-1 or B7RP1-Fc for at least eight hours at room temperature to allow them to reach equilibrium. The samples were then injected over the B7RP1-Fc surface, and the binding signal observed represented free antibody remaining in solution at equilibrium.

[3] = target: T1, human B7RP1-Fc fusion protein; test: Biacore solution equilibrium: mAb pre-incubated with B7RP1-Fc, free mAb read on immobilized B7RP1-Fc
Description: as §1

[4] = target: T2, human B7RP-1 Ig2 (IgC-like) domain fused to chicken avidin (human; chicken, UniProt O75144 120-246); test: avidin fusion on biotin-coated beads, fluorescently labeled 16H, flow cytometry
T2 construct: Order of the parts not certain ('N-terminal, in-frame fusions with chicken avidin'); also called Ig2 domain; membrane-proximal Ig2 domain; not shown: chicken avidin
T2 sequence: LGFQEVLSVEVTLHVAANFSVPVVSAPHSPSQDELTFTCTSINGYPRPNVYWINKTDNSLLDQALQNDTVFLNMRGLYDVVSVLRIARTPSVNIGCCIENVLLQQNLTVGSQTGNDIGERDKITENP
Description: (§2) Expression vectors containing genes encoding these fusion proteins were individually transiently transfected into 293T cells and the conditioned media from these cell lines were used as the source of fusion protein. The avidin-tag was used to capture the B7R-1 fusion proteins from solution using a biotin-coated bead. Fusion proteins were incubated with either fluorescently-labeled 16H or 5D mAbs or a fluorescently-labeled ICOS-Fc fusion protein, and incubated with biotin-coated beads The beads were recovered and analyzed using flow cytometry on a Becton-Dickinson Bioscience FACScan (BD, Franklin Lakes, N.J.). […] Thus, the ICOS, 16H, and 5D binding regions on B7RP-1 were located in the Ig1 domain

[5] = target: T3, soluble recombinant human B7RP-1 (human, UniProt O75144 19-256, limits assumed); test: Biacore mono column of Table 4 (same value as Table 3)
T3 construct: also called hB7RP-1; soluble B7RP-1
T3 sequence (looked up): T1 sequence (looked up)
Description: as §1

[6] = target: T3, soluble recombinant human B7RP-1; test: Biacore solution equilibrium: mAb pre-incubated with soluble B7RP-1, free mAb read on immobilized B7RP1-Fc
Description: as §1

[7] = target: T4, full-length human B7RP-1 on cells (human, UniProt O75144 19-302); test: cell-based or functional assay
T4 sequence (looked up): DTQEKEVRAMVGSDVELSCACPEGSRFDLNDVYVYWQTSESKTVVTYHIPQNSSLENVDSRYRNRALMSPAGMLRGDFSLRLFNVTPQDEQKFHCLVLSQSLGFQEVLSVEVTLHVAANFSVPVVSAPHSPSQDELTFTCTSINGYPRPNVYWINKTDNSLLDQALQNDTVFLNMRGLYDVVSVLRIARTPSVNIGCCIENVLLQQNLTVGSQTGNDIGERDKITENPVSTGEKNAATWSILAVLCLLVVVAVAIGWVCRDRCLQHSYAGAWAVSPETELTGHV

[8] = target: T3, soluble recombinant human B7RP-1; test: KinExA, dual-curve fit at [Ab] 100 pM and 300 pM, hB7RP-1 titrated in solution
Description: (§3) Binding of 5D, 2H, and 2H germline antibodies was also tested using KinExA (kinetic exclusion assay) technology. In this assay, hB7RP-1 was coupled to agarose beads. The beads were used to create a bead column. Samples containing antibody at a fixed concentration, which were allowed to come to equilibrium with varying concentrations of hB7RP-1, were then passed over the bead column. Antibody not complexed with ligand bound to the coated beads.
(§4) A fluorescent tagged anti-human Fc secondary antibody was used to detect bound test antibody.

[9] = target: T1, human B7RP1-Fc fusion protein; test: Biacore Fc column of Table 4
[10] = target: T3, soluble recombinant human B7RP-1; test: KinExA, hB7RP-1 on agarose beads, antibody equilibrated with hB7RP-1 in solution
Description: as §3, §4

[11] = target: T2, human B7RP-1 Ig2 (IgC-like) domain …; test: flow cytometry of biotin-coated beads capturing the avidin fusion protein, stained with fluorescently labelled antibody
[12] = target: T2, human B7RP-1 Ig2 (IgC-like) domain …; test: avidin fusion on biotin-coated beads, fluorescently labeled 5D, flow cytometry
Description: (§5) Experiments were conducted to identify the region on B7RP-1 to which the 16H/16Hg and 5D monoclonal antibodies bind. To do this a novel Fluorescence-Activated Cell Sorter (FACS) binding assay was developed. The human extracellular domain (ECD) of B7RP1 (SEQ ID NO: 66) as well as truncated forms of B7RP-1 containing either the Ig1 (IgV-like; SEQ ID NO: 67) or the Ig2 (IgC-like; SEQ ID NO: 68) were expressed as N-terminal, in-frame fusions with chicken avidin.
as §2

[13] = target: T2, human B7RP-1 Ig2 (IgC-like) domain …; test: avidin fusion on biotin-coated beads, fluorescently labeled ICOS-Fc, flow cytometry
Description: as §5, §2

B1: anti-B7RP1 human monoclonal antibody 15H (antibody, V domains shown)
VH: EVQLVQSGGGLVHPGGSLRLSCAGSGFTFSSYAMHWVRQAPGKGLEWVSAIGTGGGTYYADSVKGRFTISRDNAKNSLYLQMNSLRAEDMAMYYCAKSGVPLLWFGEFYWGQGTLVTVSS
VL: not shown
Plate (co-stimulation assay, T cell proliferation) EC50 [1]: 0.036 nM

B2: anti-B7RP1 human monoclonal antibody 16H (antibody, V domains shown)
VH: EVQLVESGGGLVQPGGSLRLSCAGSGFTFSSYWMSWVRQAPGKGLEWVAYIKQDGNEKYYVDSVKGRFTISRDNAKKSLYLQMNSLRAEDTAVYYCAREGILWFGDLPTFWGQGILVTVSS
VL: DIQMTQSPSSLSASVGDRVTITCRASQGISNWLAWYQQKPEKAPKSLIYAASSLQSGVPSRFSGSGSGTDFTLTISSLQPEDFATYYCQQYDSYPRTFGQGTKVEIK
notes: Fluorescently labelled in the flow cytometry assays; also called 16H mAb; B7RP-1 16H
Kd [2]: 0.027 nM
Kd [3]: 0.027 nM
binding result [4]: no binding
Kd [5]: 1.9 nM
Kd [6]: 1.9 nM
Plate (co-stimulation assay, T cell proliferation) EC50 [1]: 0.053 nM
CHO (co-stimulation assay with hB7RP1 transfected CHO cells, T cell proliferation) EC50 [7]: 0.276 nM

B3: anti-B7RP1 human monoclonal antibody 2H germline (antibody, V domains shown)
VH: B2 VH with G24A, N56S, K77N, E99D, L107I, F110Y, I115T
VL: B2 VL with A50T, D92N
Kd [8]: 0.4 nM

B5: anti-B7RP1 human monoclonal antibody 16H germline (antibody, V domains shown)
VH: B2 VH with G24A, K77N, I115T
VL: B2 VL
Kd [2]: 0.017 nM
Kd [3]: 0.017 nM
Kd [5]: 2.7 nM
Kd [6]: 2.7 nM
Plate (co-stimulation assay, T cell proliferation) EC50 [1]: 0.032 nM
CHO (co-stimulation assay with hB7RP1 transfected CHO cells, T cell proliferation) EC50 [7]: 0.523 nM

B7: anti-B7RP1 human monoclonal antibody 2H (antibody, V domains shown)
VH: B2 VH with A23V, N56S, K77N, E99D, L107I, F110Y
VL: B2 VL with A50T, D92N
Kd [9]: 0.089 nM
fold difference in KD against 5D [10]: ~10 fold
Kd [8]: 0.33 nM
Plate (co-stimulation assay, T cell proliferation) EC50 [1]: 0.043 nM
CHO (co-stimulation assay with hB7RP1 transfected CHO cells, T cell proliferation) EC50 [7]: 1.45 nM
binding result [11]: no binding

Next, values leading:

Plate (co-stimulation assay, T cell proliferation) EC50 [1]: 0.046 nM
B4: anti-B7RP1 human monoclonal antibody 43H (antibody, V domains shown)
VH: EVQLVQSGGGLVHPGGSLRLSCAGSGFTFSSYAMHWVRQAPGKGLEWVSAIGAGGGTYYADSVKGRFTISRDNAKNSLYLQMNSLRAEDMAVYYCARVVVVVGFFDYWGQGTLVTVSS
VL: B2 VL with N31S, Y49F, D92N, R96Y, V104L

Plate (co-stimulation assay, T cell proliferation) EC50 [1]: 0.052 nM
B6: anti-B7RP1 human monoclonal antibody 41H (antibody, V domains shown)
VH: B2 VH with G24A, N56S, K77N, E99D, F110Y, I115T
VL: B2 VL with N31S, D92N, S93T

binding result [12]: no binding
Kd [2]: 0.0016 nM
Kd [3]: 0.0016 nM
Kd [5]: 0.037 nM
Kd [6]: 0.037 nM
Kd [8]: 0.018 nM
Plate (co-stimulation assay, T cell proliferation) EC50 [1]: 0.055 nM
CHO (co-stimulation assay with hB7RP1 transfected CHO cells, T cell proliferation) EC50 [7]: 1.46 nM
B8: anti-B7RP1 human monoclonal antibody 5D (antibody, V domains shown)
VH: QVQLVESGGGVVQPGRSLRLSCAASGFTFSSYGMHWVRQAPGKGLEWVAVIWYDGSKKYYADSVEGRFTISRDNSKNTLYLQMNSLRAEDTAVFYCARDLNIMVWGIFDYWGQGTLVTVSS
VL: EIVLTQSPATLSLSPGERATLSCRASQSVSSYLAWYQQKPGQAPRLLIYDASNRATGIPARFSGSGSGTDFTLTISSLEPEDFAVYYCQQRNNWPWTFGQGTKVEIK
notes: Fluorescently labelled in the flow cytometry assays; also called 5D mAb; B7RP-1 5D

binding result [13]: no binding
Kd [9]: 1 nM
CHO (co-stimulation assay with hB7RP1 transfected CHO cells, T cell proliferation) EC50 [7]: 10.7 nM
B9: ICOS-Fc fusion protein (Fc fusion, UniProt Q9Y6W8 21-140, looked up)
chain: EINGSANYEMFIFHNGGVQILCKYPDIVQQFKMQLLKGGQILCDLTKTKGSGNTVSIKSLKFCHSQLSNNSVSFFLYNLDHSHANYYFCNLSIFDPPPFKVTLTGGYLHIYESQLCCQLK
notes: Fluorescently labelled in the flow cytometry assays; also called ICOS reagent; not shown: Fc part

Source: patent US20080166352A1 (Amgen, published 2008)
